Results from IntAct's records for PubMed 30774623.

Biological target: agrl1_mouse Adgrl1 (UniProt Q80TR1)
Sequence of UniProt Q80TR1 (Q80TR1 whole entry): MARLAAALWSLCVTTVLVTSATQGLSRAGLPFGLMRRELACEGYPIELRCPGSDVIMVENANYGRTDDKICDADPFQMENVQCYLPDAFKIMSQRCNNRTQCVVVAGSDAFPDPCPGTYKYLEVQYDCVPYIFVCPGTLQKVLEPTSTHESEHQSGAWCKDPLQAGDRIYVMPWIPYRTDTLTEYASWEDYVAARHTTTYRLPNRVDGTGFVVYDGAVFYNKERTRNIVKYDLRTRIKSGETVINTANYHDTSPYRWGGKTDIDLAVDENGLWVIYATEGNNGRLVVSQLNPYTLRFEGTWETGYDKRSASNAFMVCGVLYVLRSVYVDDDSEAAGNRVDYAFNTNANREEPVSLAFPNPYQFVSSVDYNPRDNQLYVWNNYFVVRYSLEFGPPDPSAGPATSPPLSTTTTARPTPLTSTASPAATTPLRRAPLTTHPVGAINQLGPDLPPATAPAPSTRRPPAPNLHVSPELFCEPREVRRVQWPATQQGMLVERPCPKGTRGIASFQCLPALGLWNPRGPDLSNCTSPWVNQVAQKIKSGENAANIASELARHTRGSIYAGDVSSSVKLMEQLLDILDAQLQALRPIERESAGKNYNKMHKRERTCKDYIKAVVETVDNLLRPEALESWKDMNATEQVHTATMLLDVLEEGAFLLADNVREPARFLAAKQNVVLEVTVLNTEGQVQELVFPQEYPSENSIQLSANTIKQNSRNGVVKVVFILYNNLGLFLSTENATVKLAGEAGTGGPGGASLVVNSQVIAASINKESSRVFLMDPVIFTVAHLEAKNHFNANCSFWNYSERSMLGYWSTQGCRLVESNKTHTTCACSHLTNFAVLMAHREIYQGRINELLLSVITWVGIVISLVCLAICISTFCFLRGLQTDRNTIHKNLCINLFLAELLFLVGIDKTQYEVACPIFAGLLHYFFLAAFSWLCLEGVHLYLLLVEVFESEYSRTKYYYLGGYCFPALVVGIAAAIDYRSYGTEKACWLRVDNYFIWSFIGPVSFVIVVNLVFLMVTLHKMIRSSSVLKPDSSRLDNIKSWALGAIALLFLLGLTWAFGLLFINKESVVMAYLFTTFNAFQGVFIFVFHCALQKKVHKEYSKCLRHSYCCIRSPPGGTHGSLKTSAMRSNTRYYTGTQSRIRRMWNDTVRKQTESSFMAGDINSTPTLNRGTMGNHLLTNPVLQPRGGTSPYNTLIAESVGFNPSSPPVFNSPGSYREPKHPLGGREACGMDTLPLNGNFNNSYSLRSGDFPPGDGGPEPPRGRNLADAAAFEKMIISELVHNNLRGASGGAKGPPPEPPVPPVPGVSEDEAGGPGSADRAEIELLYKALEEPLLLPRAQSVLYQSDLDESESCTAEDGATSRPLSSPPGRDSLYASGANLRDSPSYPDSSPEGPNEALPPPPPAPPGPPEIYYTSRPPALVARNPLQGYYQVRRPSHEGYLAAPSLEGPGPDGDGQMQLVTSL

Teneurin-1 (Mus musculus), Q9WTS4 R37K
effect of a mutation on the interaction: with no effect
